Assay results published in the DeepSol protein solubility set.

Assay: soluble on expression in E. coli; label from the status in PepcDB or PDB records

| Sequence | soluble on expression in E. coli |
| --- | --- |
| MTETIKCIGCGVEIQTEDKNEVGYAPASSLEKEQVICQRCFRLKHYNEIQDVSLTDDDFLRILNGIGKSDALVVKIVDIFDFNGSWLPGLHRFVGNNKVLLVGNKADLIPKSVKHDKVKHWMRYSAKQLGLKPEDVFLISAAKGQGIAELADAIEYYRGGKDVYVVGCTNVGKSTFINRMIKEFSDETENVITTSHFPGTTLDLIDIPLDEESSLYDTPGIINHHQMAHYVGKQSLKLITPTKEIKPMVFQLNEEQTLFFSGLARFDYVSGGRRAFTCHFSNRLTIHRTKLEKADELYKNHAGDLLSPPTPEELENMPELVKYEFNIREPKTDVVFSGLGWVTVNEPGAKIVAHVPKGVSVSLRKSLI | soluble |
| MTEVILFFFATPKRATFSLELTSMKKLATLLAGSACALSLLSGTAAAEDKELVFMNWGPYINSGILEQFTKETGIKVIYSTYESNETLYAKLKTHNQGYDLVVPSTYFVAKMRDEGMLQKIDKSKLSNFKNLDSNYLDKPYDPNNDYSIPHVVAITGLAVNTDMYDPNDFQSWGDLWKPELKGQLMLMDDTREVFHIALRKLGYSGNSTDDKQIDEAYAELQKLMPNVLVFNSDNPAAPYLSGEVGLGMLWNGSAAAAQKEGLPIKLVFPKEGGIGWVDNFAISSGAKNVDAAHKMIDFLLRPEIAEQISRDTGYLTGVKASNDKFQDVAPLFPSQEDLDRVEWQSAVGDKTVKYEEYFMKLKAGQ | not soluble |
| MTFLDKIKQGCLDGWAKYKILPSLTAAQAILESGWGKHAPHNALFGIKADASWTGKSFNTKTQEEYQAGVITDIVDRFRAYDSWDESIADHGQFLVDNPRYQSVIGEADYKKACHAIKDAGYATASGYAELLIQIIEENNLQKWDKEAIVRKEKQMINSQCREVIEFFINLANAGMGVDKDSFAGWQCADVPCYAAKHWFDVDLWGNAIDLLDSAAAVGWEVHRMPTDANPLTGAFFVQSVPYHQFGHTGIVIEDSDGYTMRTVEQNIDGNPDALYVGAPARFNTRDFTGVIGWFYPPYQGDTVTQPVSTEPQTSETIVETAKTGTFTLDVAEINIRRWPSLASEVVGSYKQGDTVSFDNEGYANGYYWISYVGGSGMRNYLGIGQTDKDGNRISLWGKLNLEHHHHHH | soluble |
| MTGLYIHIPFCATRCSYCDFYSQTNSALRSEYIQALIAEMSIRRAEVTDTIGTLYFGGGTPSLLSPQEIGRIIEQVYRLFSFSSDAEITLEANPDDLNTSYVQELRTLPINRISMGAQSFHDEDLHFLNRRHNARQVLEAVDTCRNAGLTNLSIDLIYGLPGQTPARWQENISAVLALSPPHLSAYHLIYEEGTPLTRLLHAGKVREVDEEVSLELFRMLREQLTGAGYEHYEISNFARSGYHSCHNSSYWQDTPYLGLGPSAHSFDGRRTRRSNPSDIRRYIVSMAAGKPLFTEEILTDNDRYNEVVMTRLRTACGLSPDQIGHLFGKESAERCIRTAAPFIRDGLLHEEADGRIRLTEKGIFLSDRIISEFFIV | not soluble |
| MTGSNSHITILTLNINGLNSAIKRHRLASWIKSQDPSVCCIQETHLTCRDTHRLKIKGWRKIYQANGKQKKAGVAILVSDKTDFKPTKIKRDKEGHYIMVKGSIQQEELTILNIYAPNTGAPRFIKQVLSDLQRDLDSHTLIMGDFNTPLSTLDRSTRQKVNKDTQELNSALHQADLIDIYRTLHPKSTEYTYVRVRDGHVSQSKIDHIVGSKALLSKCKRTEIITNYLSDHSAIKLELR | soluble |
| MTGSQEDQPKIIIDQEQPKTLETEHQPEPSSSSPDQKKWGTHVMGAPAAPVAHPDNQQAAAWVAGDNQQTQYQPYVIYSPVEHPTTNNPLEPVIGMFHTWSRKAETVARNLWHNLKTGPSMSETAWGKVNLTAKAITKGGFESLFRQIFGTEPNETLKKTFACYLSTTTGPVAGTVYLSNARVAFCSDRPLYFTAPSGQESWSYYRVVVPLANVATVNPVVVKETPPEKYIQLTTVDGHDFWFMGFVNYEKATHHLLTSVSDFQTAHGSVSG | soluble |
| MTGTVSRRKKIAMIGSGMIGGTMGYLCVLRELADVVLFDVVTGMPEGKALDDSQATSIADTNVSVTSANQYEKIAGSDVVIITAGLTKVPGKSDKEWSRNDLLPFNAKIIREVAQGVKKYCPLAFVIVVTNPLDCMVKCFHEASGLPKNMVCGMANVLDSARFRRFIADQLEISPRDIQATVIGTHGDHMLPLARYVTVNGFPLREFIKKGKMTEAKLAEIVERTKKAGGEIVRLLGQGSAYYAPALSAITMAQAFLKDEKRVLPCSVYCQGEYGLHDMFIGLPAVIGGGGIEQVIELELTHEEQECFRKSVDDVVELNKSLAALGPG | soluble |
| MTHHHHHHAMGPAAGQAYDAGNLDVASSPVKPTLSITKKTLTAAEAPNAKVTMELSVEGAADKYAATGLHIQFDPKLKLIPDEDGALATAGRAARLLELKKAEADTDNSFFTATGSSTNNGKDGVLWSFVLQVPADAQPGDKYDVQVAYQSRTTNEDLFTNVKKDEEGLLMQAWTFTQGIEQGYIQVESTTSLE | soluble |
| MTHYKDDSYALHTDLYQINMAYTYWKDGIHNRRSVFDLYFRKLPFENGYAVFAGLEKIVEYIENFSFTESDIAYLAELQFEEEFLHYLQNMKFTGTIRSMQEGEVVFNNEPLLRVDAPLGEAQIIETALLNIVNYQTLIATKAARMKHAASNDELLEFGTRRAHEFDAALWGTRAAFIGGFSSTSNVRAGKRFGIPVAGTHAHSFVQAYRDEYVAFKKYAETHKKCVFLVDTYDTLKSGVPNAIRVAKEFGDRIDFYGIRLDSGDMAYLSKKARKLLDEAGFTNTKIIASSDLDEYTIMHLKSQGAKIDVWGVGTKLITSFEQPALGAVYKLVAIEDTDGKLNDTIKISSNPEKITTPGLKRIYRIINRVNDHAEGDYIALDSEEPGKEERLKMFHPVHTYISKFVTNFEARELHKDIFVNGERTYELPSILDIQKYNEQSLSLFWEEYMRTLNPEEYPVDLSQECWDHKMNYIQTVREQVEKNIQK | not soluble |
| MTHYKYYEANVETNQVLVLLHGFLSDSRTYYNHIDKYTDICHVITIDLPGHGEDQSSMDETWNFDYITTLLDRILDKYKDKSITLFGYSMGGRVALYYAINGHIPISNLILESTSPGIKEEANQLERRLVDDARAKVLDIAGIELFVNDWEKLPLFQSQLELPVEIQHQIRLQRLSQSPQKMAKALRDYGTGQMPNLWPRLKEIKVPTLILAGEYDEKFVQIAKKMANLIPNSKCKLISATGHTIHVEDSDEFDTMILGFLKEEQND | not soluble |
| MTIDKLKLNTINLRNTFSNRSKPPISIITSTNKPKYFRNTIKNYTRLNYRYKELILIFNIDNIDIDYYKSYAEKIPNVMVFQLNECYSLGYCLNFGVNQSKYNYIAKMDDDDYYGPNYLTDEINAFNYTDAKIIGKCKYFTYFEDTRDLSINNYSQSYDYTNFIAGGTFLIKKELFKTYKFRDVNMSEDAGFLDDCSSHGIKIYSIDPFNYVYMRHKSLNEHTWKIPTTALKKQYFHFYKTTNYIPIVKILEHHHHHH | not soluble |
| MTIGFLGTGKISASMVDGLMRSVFDVPSIILSPRNAKRAEHLSRNYDKVIIAENNQALLDVCDCVFLCLPNQIAEEVLRSLRFRPEQLVVSVLAMAKAAEVEEWINHKVYRAVPLPFVAECKNLTPIYPDHPFLRSLFDALGGTLVLDAEEQFNLFMTAGSLMGVYFNFIETAHKWFITQGLKKQQSADFLAMMFGNLTDEMRKIMDQDCSTSLDFALLEKEFSTKGGTNELLSHCFSHQGGRSALTTALETTLQKINAPFTY | not soluble |
| MTIKVGINGFGRIGRIVFRAAQKRSDIEIVAINDLLDADYMAYMLKYDSTHGRFDGTVEVKDGHLIVNGKKIRVTAERDPANLKWDEVGVDVVAEATGLFLTDETARKHITAGAKKVVMTGPSKDNTPMFVKGANFDKYAGQDIVSNASCTTNCLAPLAKVINDNFGIIEGLMTTVHATTATQKTVDGPSHKDWRGGRGASQNIIPSSTGAAKAVGKVLPELNGKLTGMAFRVPTPNVSVVDLTVRLEKAATYEQIKAAVKAAAEGEMKGVLGYTEDDVVSTDFNGEVCTSVFDAKAGIALNDNFVKLVSWYDNETGYSNKVLDLIAHISK | soluble |
| MTILNHTLGFPRVGLRRELKKAQESYWAGNSTREELLAVGRELRARHWDQQKQAGIDLLPVGDFAWYDHVLTTSLLLGNVPARHQNKDGSVDIDTLFRIGRGRAPTGEPAAAAEMTKWFNTNYHYMVPEFVKGQQFKLTWTQLLDEVDEALALGHKVKPVLLGPITWLWLGKVKGEQFDRLSLLNDILPVYQQVLAELAKRGIEWVQIDEPALVLELPQAWLDAYKPAYDALQGQVKLLLTTYFEGVTPNLDTITALPVQGLHVDLVHGKDDVVELHKRLPSDWLLSAGLINGRNVWRADLTEKYVQIKDIVGKRDLWVASSCSLLHSPIDLSVETRLDAEVKSWFAFALQKCHELALLCDALNSGDTAALAEWSAPIQARRHSTRVHNPAVEKRLAAITAQDSQRANVYEVRAEAQRARFKLPAWPTTTIGSFPQTTEIRTLRLDFKKGNLDANNYRTGIAEHIRQAIVEQERLGLDVLVHGEAERNDMVEYFGEHLDGFVFTQNGWVQSYGSRCVKPPIVIGDVSRPAPITVEWAKYAQSMTDKPVKGMLTGPVTILCWSFPREDVSRETIAKQIALALRDEVADLEAAGIGIIQIDEPALREGLPLRRSDWDAYLQWGVEAFRINAAVAKDDTQIHTHMCYCEFNDIMDSIAALDADVITIETSRSDMELLESFEEFDYPNEIGPGVYDIHSPNVPSVEWIEALLKKAAKRIPAERLWVNPDCGLKTRGWPETRAALANMVQAAQNLRRG | not soluble |
| MTINFRRNALQLSVAALFSSAFMANAADVPQVKVTVTDKQCEPMTITVNAGKTQFIIQNHSQKALEWEILKGVMVVEERENIAPGFSQKMTANLQPGEYDMTCGLLTNPKGKLIVKGEATADAAQSDALLSLGGAITAYKAYVMAETTQLVTDTKAFTDAIKAGDIEKAKALYAPTRQHYERIEPIAELFSDLDGSIDAREDDYEQKAADPKFTGFHRLEKALFGDNTTKGMDQYAEQLYTDVVDLQKRISELAFPPSKVVGGAAGLIEEVAASKISGEEDRYSHTDLWDFQANVEGSQKIVDLLRPQLQKANPELLAKVDANFKKVDTILAKYRTKDGFETYDKLTDADRNALKGPITALAEDLAQLRGVLGLD | soluble |
| MTIQPPSSSSATEFCQPDESTFLVGFNRVRRYGTTQSQSSPVTPCSYTIYQVQTDDTLERIALKHNCSVSSLVRANKLWSPSALFMKQFIRIPIFNSQQPNLKPSLQETQCKIVPATTERVDSSREEKSMKDILQRIDRNIKSFRKCDNPSSSAYDHI | not soluble |
| MTIQTVIKENAYFDSVTLMTISTRANELAGVKTAMIGMGTDMNLEVIRNVGLYTPALDHVTTGDLLIVLDLDDQANSEEILQQVDELFTKKKKTASSEVTYKTLDSALHEEPDANLVVISVNGKFAAREAHKALDQQKHVMLFSDNVTVDEELALKQKAHEKELFVMGPDCGTAIINGVGLCFANEVRSGDIGIVGASGTGSQEVSVQIHKYGYGISQLIGTGGRDLSAEIGGLMMLDGLDTLMVDEQTKAILLISKPPAPEVTEKILKKLAVSTKPVVIYFIGSEQTERKIDNVTFATSSLDAVQKVIQFSQTQEAETSLYQNPTGATLTAIQQQQAPSQKFVRGLFCGGTLCDELLYALTEVSDDVYSNIHKISERQLANPDHSQAHTLIDFGDDRFTEGRPHPMIDPTSRITRILQEAKDPEVAVLALDFELGYGSHENPVGVLAEALKEAKAIAKADGRELAIIGYVLGTEEDPQDIHEQRKILEDLEVLVVDSSHQLCEATKTFVKGANEHEQK | not soluble |
| MTIRFDNVSYTYQKGTPYQHQAIHDVNTEFEQGKYYAIVGQTGSGKSTLIQNINALLKPTTGTVTVDDITITHKTKDKYIRPVRKRIGMVFQFPESQLFEDTVEREMIFGPKNFKMNLDEAKNYAHRLLMDLGFSRDVMSQSPFQMSGGQMRKIAIVSILAMNPDIIVVDEPTAGLDPQSKRQVMRLLKSLQTDENKAIILISHDMNEVARYADEVIVMKEGSIVSQTSPKELFKDKKKLADWHIGLPEIVQLQYDFEQKYQTKLKDIALTEEAFVSLYKEWQHEK | not soluble |
